How the values were obtained:
[1] = target: the molecule itself; assay: SEC; analytical size exclusion chromatography, Yarra SEC-3000, 10 mM HEPES pH 7.2, 150 mM NaCl, 0.3 mM TCEP, 0.018% DDM, column at 20 °C; self-association in protein-detergent micelles
[2] = target: the molecule itself; assay: SEC-MALS; isolated peak 1 (largest oligomer) of MBP-4A-S1R; Superdex S200, 150 mM NaCl, 5 mM HEPES pH 7.2, 0.018% DDM
[3] = target: the molecule itself; assay: cross-linking; DSS (150 or 250 μM) on 5 μM isolated peak 1 (oligomer) of MBP-4A-S1R, 2 h at room temperature, with or without 10 μM BD-1047; SDS-PAGE
[4] = target: the molecule itself; assay: SEC-MALS; isolated intermediate oligomer (peak *) of MBP-4A-S1R; Superdex S200, 150 mM NaCl, 5 mM HEPES pH 7.2, 0.018% DDM

Protein	stoichiometry N [1]	binding result [1]	further results
G91I MBP-4A-S1R (receptor, guinea pig, UniProt Q60492 1-223, looked up, sigma-1 receptor (S1R), guinea pig, 223 amino acids, as m1 with G91I; also called G91I mutation; not shown: MBP with 4-Ala linker, N-terminal, kept) MQWAVGRRWLWVALFLAAVAVLTQIVWLWLGTQNFVFQREEIAQLARQYAGLDHELAFSKLIVELRRLHPVHVLPDEELQWVFVNAGGWMIAMCLLHASLSEYVLLFGTALGSPRHSGRYWAEISDTIISGTFHQWREGTTKSEVFYPGETVVHGPGEATAVEWGPNTWMVEYGRGVIPSTLGFALADTVFSTQDFLTLFYTLRVYARALQLELTTYLFGQDP	~2		
G91L MBP-4A-S1R (receptor, guinea pig, UniProt Q60492 1-223, looked up, sigma-1 receptor (S1R), guinea pig, 223 amino acids, as m1 with G91L; also called G91L mutation; not shown: MBP with 4-Ala linker, N-terminal, kept) MQWAVGRRWLWVALFLAAVAVLTQIVWLWLGTQNFVFQREEIAQLARQYAGLDHELAFSKLIVELRRLHPVHVLPDEELQWVFVNAGGWMLAMCLLHASLSEYVLLFGTALGSPRHSGRYWAEISDTIISGTFHQWREGTTKSEVFYPGETVVHGPGEATAVEWGPNTWMVEYGRGVIPSTLGFALADTVFSTQDFLTLFYTLRVYARALQLELTTYLFGQDP	~4		
G88I MBP-4A-S1R (receptor, guinea pig, UniProt Q60492 1-223, looked up, sigma-1 receptor (S1R), guinea pig, 223 amino acids, as m1 with G88I; Named only as one of the substitutions of Ile or Leu at Gly-87, Gly-88 and Gly-91; also called substitution of Ile at Gly-88; not shown: MBP with 4-Ala linker, N-terminal, kept) MQWAVGRRWLWVALFLAAVAVLTQIVWLWLGTQNFVFQREEIAQLARQYAGLDHELAFSKLIVELRRLHPVHVLPDEELQWVFVNAGIWMGAMCLLHASLSEYVLLFGTALGSPRHSGRYWAEISDTIISGTFHQWREGTTKSEVFYPGETVVHGPGEATAVEWGPNTWMVEYGRGVIPSTLGFALADTVFSTQDFLTLFYTLRVYARALQLELTTYLFGQDP		binds	
G88L MBP-4A-S1R (receptor, guinea pig, UniProt Q60492 1-223, looked up, sigma-1 receptor (S1R), guinea pig, 223 amino acids, as m1 with G88L; Named only as one of the substitutions of Ile or Leu at Gly-87, Gly-88 and Gly-91; also called substitution of Leu at Gly-88; not shown: MBP with 4-Ala linker, N-terminal, kept) MQWAVGRRWLWVALFLAAVAVLTQIVWLWLGTQNFVFQREEIAQLARQYAGLDHELAFSKLIVELRRLHPVHVLPDEELQWVFVNAGLWMGAMCLLHASLSEYVLLFGTALGSPRHSGRYWAEISDTIISGTFHQWREGTTKSEVFYPGETVVHGPGEATAVEWGPNTWMVEYGRGVIPSTLGFALADTVFSTQDFLTLFYTLRVYARALQLELTTYLFGQDP		binds	
H97A MBP-4A-S1R (receptor, guinea pig, UniProt Q60492 1-223, looked up, sigma-1 receptor (S1R), guinea pig, 223 amino acids, as m1 with H97A; also called mutation H97A; not shown: MBP with 4-Ala linker, N-terminal, kept) MQWAVGRRWLWVALFLAAVAVLTQIVWLWLGTQNFVFQREEIAQLARQYAGLDHELAFSKLIVELRRLHPVHVLPDEELQWVFVNAGGWMGAMCLLAASLSEYVLLFGTALGSPRHSGRYWAEISDTIISGTFHQWREGTTKSEVFYPGETVVHGPGEATAVEWGPNTWMVEYGRGVIPSTLGFALADTVFSTQDFLTLFYTLRVYARALQLELTTYLFGQDP		binds	
MBP-4A-S1R (guinea pig sigma-1 receptor fused to maltose-binding protein through a 4-Ala linker) (receptor, UniProt Q60492 1-223, looked up, sigma-1 receptor (S1R), guinea pig, 223 amino acids; In detergent micelles (DDM); One preparation separates into a 6-8-mer, a tetramer and a monomer; also called nonmutated receptor; nonmutated fusion protein; source: preparative size exclusion chromatography; not shown: MBP with 4-Ala linker, N-terminal, kept) MQWAVGRRWLWVALFLAAVAVLTQIVWLWLGTQNFVFQREEIAQLARQYAGLDHELAFSKLIVELRRLHPVHVLPDEELQWVFVNAGGWMGAMCLLHASLSEYVLLFGTALGSPRHSGRYWAEISDTIISGTFHQWREGTTKSEVFYPGETVVHGPGEATAVEWGPNTWMVEYGRGVIPSTLGFALADTVFSTQDFLTLFYTLRVYARALQLELTTYLFGQDP			stoichiometry N [2]: 6 to 8; stoichiometry N [3]: > 4; stoichiometry N [4]: 4

Reference: article PMC4106346, “The Oligomeric States of the Purified Sigma-1 Receptor Are Stabilized by Ligands*” (The Journal of Biological Chemistry, 2014)
